Earlier results as cited in PMC10818705.

Biological target: Tyr109 (UniProt position 129, EGEHFYFFCTF)

Azurin, His107/Tyr109 (Lys122) hopping variant (Pseudomonas aeruginosa; W48F;Y72F;Y108F;H83Q;Q107H;M109Y)
pKa: 10.2 ± 0.3
